We go through 3 molecules from patent US20250002610A1 (Genmab, published 2025).

The target in test [1] is T1, human FAPα (Fibroblast activation protein alpha), cell surface expressed (human, UniProt Q12884 1-760).
T1 construct: Endogenous on human lung fibroblasts and CAFs
T1 sequence: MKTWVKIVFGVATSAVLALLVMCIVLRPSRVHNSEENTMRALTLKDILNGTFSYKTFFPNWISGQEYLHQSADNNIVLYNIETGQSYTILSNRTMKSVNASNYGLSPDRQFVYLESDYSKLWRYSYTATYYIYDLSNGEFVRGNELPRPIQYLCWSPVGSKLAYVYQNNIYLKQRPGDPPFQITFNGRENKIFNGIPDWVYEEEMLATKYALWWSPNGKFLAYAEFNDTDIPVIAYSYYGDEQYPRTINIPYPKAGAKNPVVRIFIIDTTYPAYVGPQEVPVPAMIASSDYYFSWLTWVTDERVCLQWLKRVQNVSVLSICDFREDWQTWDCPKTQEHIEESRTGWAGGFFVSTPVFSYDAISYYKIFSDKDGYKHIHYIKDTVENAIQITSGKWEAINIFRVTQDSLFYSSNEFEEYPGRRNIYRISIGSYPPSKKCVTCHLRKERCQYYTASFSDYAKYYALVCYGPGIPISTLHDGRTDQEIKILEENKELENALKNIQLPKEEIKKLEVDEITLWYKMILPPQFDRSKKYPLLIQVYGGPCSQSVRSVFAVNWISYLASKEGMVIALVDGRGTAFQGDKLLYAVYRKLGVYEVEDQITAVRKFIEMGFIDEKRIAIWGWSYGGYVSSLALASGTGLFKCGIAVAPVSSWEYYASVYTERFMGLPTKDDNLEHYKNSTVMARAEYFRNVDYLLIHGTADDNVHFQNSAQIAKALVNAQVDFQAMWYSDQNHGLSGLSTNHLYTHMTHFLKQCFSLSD
As to the kind of experiment: flow cytometry, CAFs, n = 1. As to the method:
(§1) Binding of bispecific or monoclonal antibodies carrying the anti-FAPα arm derived from IgG1-FAPα-FERL (BisG1-FAPα-FERL/DR4-FERR, BisG1-FAPα-FERL/b12-FERR, and IgG1-FAPα-FERL) to cell surface expressed human FAPα was analyzed by flow cytometry using human lung fibroblasts and CAFs, which endogenously express FAPα. BisG1-b12-FERL/b12-FERR was used as negative control.
(§2) Human lung fibroblasts and CAFs (50,000 cells/well) were seeded in 96-Well round bottom plates (Greiner Bio-one, Cat #650101). Antibody dilutions were prepared using fluorescence-activated cell sorting (FACS) buffer, consisting of phosphate buffer saline (PBS, Lonza, Cat #BE17-517Q)+1% Bovine Serum Albumin (BSA, Roche, Cat #10735086001)+0.02% Sodium Azide (Bio-World, Cat #41920044-3). Plates were centrifuged, supernatant was removed, cells were resuspended in 50 μL of human Fc Block (BD, Cat #564220, diluted 1:100 in FACS buffer) and 50 μL of viability stain TO-PRO-3 Iodide (Thermo Fisher, Cat #T3605, diluted 1: 25,000 in FACS buffer), and incubated for 15 min at 4° C. Plates were washed three times with FACS buffer. […] Antibody binding to viable cells (TO-PRO-3 negative) was analyzed by flow cytometry on a FACSCelesta™ (BD biosciences) and data were processed using FlowJo_v10.8.1 (FlowJo LLC). Geomean fluorescence intensity, gMFI, was determined and visualized using GraphPad Prism.
(In flow cytometry, cells or beads pass a laser one at a time.)

In test [2] the target is T1, human FAPα (Fibroblast activation …). As to the kind of experiment: flow cytometry, CAFs, n = 2. Here is the method: as §1, §2
Test [3] has the same target. Description: flow cytometry, CAFs, n = 3. Here is the method:
as §1, §2

Test [4] shares this target. As to the kind of experiment: flow cytometry, CAFs, average ± SEM. As to the method:
as §1, §2

Test [5] has as its target T2, human DR4 (Death Receptor 4), cell surface expressed on human tumor cell lines (human, UniProt O00220 24-468).
T2 construct: also called TNFRSF10A; TRAIL-R1
T2 sequence: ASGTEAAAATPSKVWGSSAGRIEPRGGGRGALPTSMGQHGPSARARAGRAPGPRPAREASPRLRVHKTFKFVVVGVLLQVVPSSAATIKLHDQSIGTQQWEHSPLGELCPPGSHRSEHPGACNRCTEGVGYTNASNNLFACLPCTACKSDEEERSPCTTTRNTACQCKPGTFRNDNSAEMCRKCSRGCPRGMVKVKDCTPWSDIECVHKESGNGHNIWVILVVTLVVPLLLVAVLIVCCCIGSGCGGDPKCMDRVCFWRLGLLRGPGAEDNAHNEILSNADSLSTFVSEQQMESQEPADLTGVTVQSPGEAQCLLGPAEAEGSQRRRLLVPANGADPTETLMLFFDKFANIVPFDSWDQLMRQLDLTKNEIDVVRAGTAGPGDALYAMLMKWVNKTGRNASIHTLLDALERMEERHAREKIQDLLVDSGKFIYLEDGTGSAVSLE
Description: flow cytometry, HCT-15 cells, average ± SEM.

Test [6] deals with T3, human DR4 with death domain deletion on ExpiCHO-S cells (human). As to the kind of experiment: flow cytometry, ExpiCHO-S cells expressing human DR4, n = 1. As to the method: (§3) Binding of BisG1-FAPα-FERL/DR4-FERR, BisG1-DR4-FEAL/b12-FEAR and IgG1-DR4-FERR to DR4 of various species commonly used for nonclinical toxicology studies was assessed by flow cytometry using ExpiCHO-S cells transiently expressing DR4 from different animal species. In contrast to other species, rodents only express one DR which has highest homology with human DR5. Therefore, ExpiCHO-S cells transiently expressing rat and mouse DR protein were used instead. All DR constructs lack the intracellular DD to avoid apoptosis of transfected cells upon DR(4) activation. IgG1-b12 was used as negative control.

Test [7] deals with T3, human DR4 with death domain deletion on …. As to the kind of experiment: flow cytometry, ExpiCHO-S cells expressing human DR4, n = 2. As to the method:
as §3

B1: BisG1-FAPα-FERL/b12-FERR (bispecific antibody, human IgG1, kappa)
heavy 1: EVQLLESGGGLVQPGGSPRLSCEASGFTFSSYALSWVRQAPGKGLEWVSAISGSGGGRYYADSVKGRFTISRDNSKNTLFLQMNSLRAEDTAVYYCAKEGYSSSGTYWDHWGQGTLVTVSSASTKGPSVFPLAPSSKSTSGGTAALGCLVKDYFPEPVTVSWNSGALTSGVHTFPAVLQSSGLYSLSSVVTVPSSSLGTQTYICNVNHKPSNTKVDKRVEPKSCDKTHTCPPCPAPEFERGPSVFLFPPKPKDTLMISRTPEVTCVVVDVSHEDPEVKFNWYVDGVEVHNAKTKPREEQYNSTYRVVSVLTVLHQDWLNGKEYKCKVSNKALPAPIEKTISKAKGQPREPQVYTLPPSREEMTKNQVSLTCLVKGFYPSDIAVEWESNGQPENNYKTTPPVLDSDGSFLLYSKLTVDKSRWQQGNVFSCSVMHEALHNHYTQKSLSLSPG
light 1: AIQMTQSPSSVSASVGDRVTITCRASQGVSSWLAWYQQKPGRAPKLLIYVASTLQSGVPSRFSGSGSGTDFTLTINSLQPEDFATYYCQQANSFPPTFGQGTRLEMKRTVAAPSVFIFPPSDEQLKSGTASVVCLLNNFYPREAKVQWKVDNALQSGNSQESVTEQDSKDSTYSLSSTLTLSKADYEKHKVYACEVTHQGLSSPVTKSFNRGEC
heavy 2: QVQLVQSGAEVKKPGASVKVSCQASGYRFSNFVIHWVRQAPGQRFEWMGWINPYNGNKEFSAKFQDRVTFTADTSANTAYMELRSLRSADTAVYYCARVGPYSWDDSPQDNYYMDVWGKGTTVIVSSASTKGPSVFPLAPSSKSTSGGTAALGCLVKDYFPEPVTVSWNSGALTSGVHTFPAVLQSSGLYSLSSVVTVPSSSLGTQTYICNVNHKPSNTKVDKRVEPKSCDKTHTCPPCPAPEFERGPSVFLFPPKPKDTLMISRTPEVTCVVVDVSHEDPEVKFNWYVDGVEVHNAKTKPREEQYNSTYRVVSVLTVLHQDWLNGKEYKCKVSNKALPAPIEKTISKAKGQPREPQVYTLPPSREEMTKNQVSLTCLVKGFYPSDIAVEWESNGQPENNYKTTPPVLDSDGSFFLYSRLTVDKSRWQQGNVFSCSVMHEALHNHYTQKSLSLSPG
light 2: EIVLTQSPGTLSLSPGERATFSCRSSHSIRSRRVAWYQHKPGQAPRLVIHGVSNRASGISDRFSGSGSGTDFTLTITRVEPEDFALYYCQVYGASSYTFGQGTKLERKRTVAAPSVFIFPPSDEQLKSGTASVVCLLNNFYPREAKVQWKVDNALQSGNSQESVTEQDSKDSTYSLSSTLTLSKADYEKHKVYACEVTHQGLSSPVTKSFNRGEC
In general, EC50 refers to the midpoint of the concentration-response curve. A higher EC50 goes with weaker potency. With B1, the EC50 in test [1] was 0.183 µg/mL; in test [2], 0.231 µg/mL; in test [3], 0.218 µg/mL; in test [4], 0.21 µg/mL.

B2: BisG1-b12-FERL/DR4-FERR (bispecific antibody, human IgG1, kappa, lambda)
heavy 1: QVQLVQSGAEVKKPGASVKVSCQASGYRFSNFVIHWVRQAPGQRFEWMGWINPYNGNKEFSAKFQDRVTFTADTSANTAYMELRSLRSADTAVYYCARVGPYSWDDSPQDNYYMDVWGKGTTVIVSSASTKGPSVFPLAPSSKSTSGGTAALGCLVKDYFPEPVTVSWNSGALTSGVHTFPAVLQSSGLYSLSSVVTVPSSSLGTQTYICNVNHKPSNTKVDKRVEPKSCDKTHTCPPCPAPEFERGPSVFLFPPKPKDTLMISRTPEVTCVVVDVSHEDPEVKFNWYVDGVEVHNAKTKPREEQYNSTYRVVSVLTVLHQDWLNGKEYKCKVSNKALPAPIEKTISKAKGQPREPQVYTLPPSREEMTKNQVSLTCLVKGFYPSDIAVEWESNGQPENNYKTTPPVLDSDGSFLLYSKLTVDKSRWQQGNVFSCSVMHEALHNHYTQKSLSLSPG
light 1: EIVLTQSPGTLSLSPGERATFSCRSSHSIRSRRVAWYQHKPGQAPRLVIHGVSNRASGISDRFSGSGSGTDFTLTITRVEPEDFALYYCQVYGASSYTFGQGTKLERKRTVAAPSVFIFPPSDEQLKSGTASVVCLLNNFYPREAKVQWKVDNALQSGNSQESVTEQDSKDSTYSLSSTLTLSKADYEKHKVYACEVTHQGLSSPVTKSFNRGEC
heavy 2: QVQLQESGPGLVKPSGTLSLTCAVSGGSISSYSWWSWIRQPPGKGLEWIGELYHSGSTNYNPSLKSRVTISVDKSKNQFSLKLRSVTAADTAVYYCVRGVATIDYWGQGTLVTVSSASTKGPSVFPLAPSSKSTSGGTAALGCLVKDYFPEPVTVSWNSGALTSGVHTFPAVLQSSGLYSLSSVVTVPSSSLGTQTYICNVNHKPSNTKVDKRVEPKSCDKTHTCPPCPAPEFERGPSVFLFPPKPKDTLMISRTPEVTCVVVDVSHEDPEVKFNWYVDGVEVHNAKTKPREEQYNSTYRVVSVLTVLHQDWLNGKEYKCKVSNKALPAPIEKTISKAKGQPREPQVYTLPPSREEMTKNQVSLTCLVKGFYPSDIAVEWESNGQPENNYKTTPPVLDSDGSFFLYSRLTVDKSRWQQGNVFSCSVMHEALHNHYTQKSLSLSPG
light 2: QSALTQPPSASGSPGQSVTISCTGTSSDVGGYNFVSWYQQDPGKAPKLLIYEVTKRPSGVPDRFSGSKSGNTASLTVSGLQAEDEADYYCSSYAGSNNVMFGGGTKLTVLGQPKAAPSVTLFPPSSEELQANKATLVCLISDFYPGAVTVAWKADSSPVKAGVETTTPSKQSNNKYAASSYLSLTPEQWKSHRSYSCQVTHEGSTVEKTVAPTECS
notes: Fab-arm exchange of IgG1-b12-FERL and IgG1-DR4-FERR; also called bsIgG1-ctrl-FERLxDR4-FERR
The molecule B2 gave an EC50 in test [5] of 0.56 µg/mL.

B3: IgG1-DR4-FERR (antibody, V domains shown)
VH: QVQLQESGPGLVKPSGTLSLTCAVSGGSISSYSWWSWIRQPPGKGLEWIGELYHSGSTNYNPSLKSRVTISVDKSKNQFSLKLRSVTAADTAVYYCVRGVATIDYWGQGTLVTVSS
VL: QSALTQPPSASGSPGQSVTISCTGTSSDVGGYNFVSWYQQDPGKAPKLLIYEVTKRPSGVPDRFSGSKSGNTASLTVSGLQAEDEADYYCSSYAGSNNVMFGGGTKLTVLG
notes: Bivalent monoclonal IgG1 lambda
Consider B3, for which the EC50 in test [6] came to 0.33 µg/mL; in test [7] it was 0.06 µg/mL.
